Experiments:
[1] = target: T1, UV-DDB (DDB1-DDB2);XPC-RAD23B (Homo sapiens;Homo sapiens, UniProt Q16531;Q92466;Q01831;P54727 1-1140;1-427;1-940;1-409, |); experiment: single-molecule DNA curtain; details: 0.2 nM UV-DDB, 0.4 nM XPC-RAD23B, 3-fold more at CPD sites than random sites, three CPDs around 33.5 kbp (33513-33630), EMSA: 50 mM Tris-HCl pH 7.5, 100 mM NaCl, 0.1 mg/ml BSA, 1 mM DTT, 23°C, 45 min, DNA curtains: 10 mM Tris-HCl pH 8.0, 1 mM EDTA, 0.16% BSA, 0-100 mM …
[2] = target: UV-DDB (heterodimer of DDB1 and DDB2) (human, UniProt Q16531 1-1140; Q92466 1-427); experiment: cell-based or functional assay
[3] = target: UV-DDB (DDB1-DDB2) (Homo sapiens, UniProt Q16531;Q92466 1-1140;1-427); experiment: EMSA; 4 nM DNA, no competitor; EMSA: 50 mM Tris-HCl pH 7.5, 100 mM NaCl, 0.1 mg/ml BSA, 1 mM DTT, 23°C, 45 min; DNA curtains: 10 mM Tris-HCl pH 8.0, 1 mM EDTA, 0.16% BSA, 1 mM DTT, 0-100 mM NaCl, 23°C; details: protein: recombinant, tags: 3xHA at N-terminus of DDB1 (1xFLAG removed by PreScission), copies: 1;1, label: 5'-FAM on strand 2, blunt
[4] = target: XPC-RAD23B (Homo sapiens, UniProt Q01831;P54727 1-940;1-409); experiment: as above; details: protein: recombinant, tags: 3xFLAG at N-terminus of XPC, copies: 1;1, label: 5'-FAM on strand 2, blunt
[5] = target: T1, UV-DDB (DDB1-DDB2);XPC-RAD23B; experiment: EMSA; 15 nM XPC-RAD23B, UV-DDB titrated, 10 nM DNA; co-bound band confirmed by native western; EMSA: 50 mM Tris-HCl pH 7.5, 100 mM NaCl, 0.1 mg/ml BSA, 1 mM DTT, 23°C, 45 min; DNA curtains: 10 mM Tris-HCl pH 8.0, 1 mM EDTA, 0.16% BSA, 1 mM DTT, 0-100 mM NaCl, 23°C; details: protein: recombinant;recombinant; tags: 3xHA at N-terminus of DDB1 (1xFLAG removed by PreScission);3xFLAG at N-terminus of XPC; copies: 1;1;1;1; label: 5'-FAM on strand 2; blunt; T21 of strand 1 faces T of strand 2 (T-T mismatch at the CPD)
[6] = target: T1, UV-DDB (DDB1-DDB2);XPC-RAD23B; experiment: EMSA; 2 nM XPC-RAD23B, UV-DDB titrated, 10 nM DNA; EMSA: 50 mM Tris-HCl pH 7.5, 100 mM NaCl, 0.1 mg/ml BSA, 1 mM DTT, 23°C, 45 min; DNA curtains: 10 mM Tris-HCl pH 8.0, 1 mM EDTA, 0.16% BSA, 1 mM DTT, 0-100 mM NaCl, 23°C; details: protein: recombinant;recombinant; tags: 3xHA at N-terminus of DDB1 (1xFLAG removed by PreScission);3xFLAG at N-terminus of XPC; copies: 1;1;1;1; label: 5'-FAM on strand 2; blunt; T21 of strand 1 faces T of strand 2 (T-T mismatch at the CPD)
[7] = target: T1, UV-DDB (DDB1-DDB2);XPC-RAD23B; experiment: EMSA; 2 nM XPC-RAD23B increases UV-DDB binding; EMSA: 50 mM Tris-HCl pH 7.5, 100 mM NaCl, 0.1 mg/ml BSA, 1 mM DTT, 23°C, 45 min; DNA curtains: 10 mM Tris-HCl pH 8.0, 1 mM EDTA, 0.16% BSA, 1 mM DTT, 0-100 mM NaCl, 23°C; details: protein: recombinant;recombinant; tags: 3xHA at N-terminus of DDB1 (1xFLAG removed by PreScission);3xFLAG at N-terminus of XPC; copies: 1;1;1;1; label: 5'-FAM on strand 2; blunt
[8] = T21 of strand 1 faces T of strand 2 (T-T mismatch at the CPD)

T1 sequence (Q16531 whole entry, chain 1 of 2): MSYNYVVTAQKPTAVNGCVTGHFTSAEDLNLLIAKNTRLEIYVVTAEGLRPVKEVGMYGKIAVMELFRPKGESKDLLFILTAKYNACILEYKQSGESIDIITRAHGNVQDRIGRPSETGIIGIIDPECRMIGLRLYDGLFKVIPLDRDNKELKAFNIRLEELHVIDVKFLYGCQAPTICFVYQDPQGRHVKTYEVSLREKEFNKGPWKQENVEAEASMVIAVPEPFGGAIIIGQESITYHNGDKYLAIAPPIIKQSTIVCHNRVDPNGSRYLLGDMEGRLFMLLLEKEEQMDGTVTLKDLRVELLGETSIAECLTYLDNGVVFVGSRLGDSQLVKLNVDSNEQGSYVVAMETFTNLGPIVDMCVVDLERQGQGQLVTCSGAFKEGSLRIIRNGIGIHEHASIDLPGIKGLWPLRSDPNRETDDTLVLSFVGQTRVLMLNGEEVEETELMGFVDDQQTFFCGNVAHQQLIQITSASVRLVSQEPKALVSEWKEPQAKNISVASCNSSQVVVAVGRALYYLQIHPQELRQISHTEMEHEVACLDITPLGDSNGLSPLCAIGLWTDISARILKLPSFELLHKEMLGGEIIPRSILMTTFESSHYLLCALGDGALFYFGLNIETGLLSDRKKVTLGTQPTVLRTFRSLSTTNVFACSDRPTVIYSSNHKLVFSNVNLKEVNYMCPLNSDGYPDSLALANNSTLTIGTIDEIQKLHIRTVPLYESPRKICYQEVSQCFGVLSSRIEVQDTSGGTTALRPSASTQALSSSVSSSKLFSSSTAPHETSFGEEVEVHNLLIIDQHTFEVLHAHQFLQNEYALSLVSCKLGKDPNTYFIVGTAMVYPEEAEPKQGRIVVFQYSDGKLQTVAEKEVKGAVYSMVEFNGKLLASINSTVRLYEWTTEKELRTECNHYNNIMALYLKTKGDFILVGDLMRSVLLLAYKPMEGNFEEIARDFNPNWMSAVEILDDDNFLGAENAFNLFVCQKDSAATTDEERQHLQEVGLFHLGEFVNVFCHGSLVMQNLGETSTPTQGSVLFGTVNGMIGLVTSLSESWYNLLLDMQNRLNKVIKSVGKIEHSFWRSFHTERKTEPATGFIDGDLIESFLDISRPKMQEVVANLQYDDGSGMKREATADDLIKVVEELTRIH
T1 sequence (Q92466 whole entry, chain 2 of 2): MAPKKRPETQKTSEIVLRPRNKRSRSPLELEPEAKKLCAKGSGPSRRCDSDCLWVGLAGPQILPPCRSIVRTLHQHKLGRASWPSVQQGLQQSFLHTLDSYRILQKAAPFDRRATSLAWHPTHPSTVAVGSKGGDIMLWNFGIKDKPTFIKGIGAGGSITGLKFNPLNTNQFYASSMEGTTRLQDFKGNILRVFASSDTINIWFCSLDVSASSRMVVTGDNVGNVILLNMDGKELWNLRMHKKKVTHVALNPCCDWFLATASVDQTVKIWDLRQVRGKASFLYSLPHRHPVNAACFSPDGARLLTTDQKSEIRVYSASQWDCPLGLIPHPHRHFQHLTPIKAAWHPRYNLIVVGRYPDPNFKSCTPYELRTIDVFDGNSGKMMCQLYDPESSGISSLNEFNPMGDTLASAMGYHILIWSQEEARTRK
Sequence of UV-DDB (DDB1-DDB2) (Q16531 whole entry, chain 1 of 2): as the sequence (Q16531 whole entry, chain 1 of 2) above
Sequence of UV-DDB (DDB1-DDB2) (Q92466 whole entry, chain 2 of 2): as the sequence (Q92466 whole entry, chain 2 of 2) above
Sequence of UV-DDB (heterodimer of DDB1 and DDB2) (Q16531 whole entry, chain 1 of 2): as the sequence (Q16531 whole entry, chain 1 of 2) above
Sequence of UV-DDB (heterodimer of DDB1 and DDB2) (Q92466 whole entry, chain 2 of 2): as the sequence (Q92466 whole entry, chain 2 of 2) above

For 3x CPD λ-DNA (λ-I3), the binding signal (fold bound UV-DDB vs no XPC-RAD23B) [1] was 5.5.

B1: XPC-RAD23B (complex, human)
chain 1: MARKRAAGGEPRGRELRSQKSKAKSKARREEEEEDAFEDEKPPKKSLLSKVSQGKRKRGCSHPGGSADGPAKKKVAKVTVKSENLKVIKDEALSDGDDLRDFPSDLKKAHHLKRGATMNEDSNEEEEESENDWEEVEELSEPVLGDVRESTAFSRSLLPVKPVEIEIETPEQAKTRERSEKIKLEFETYLRRAMKRFNKGVHEDTHKVHLLCLLANGFYRNNICSQPDLHAIGLSIIPARFTRVLPRDVDTYYLSNLVKWFIGTFTVNAELSASEQDNLQTTLERRFAIYSARDDEELVHIFLLILRALQLLTRLVLSLQPIPLKSATAKGKKPSKERLTADPGGSSETSSQVLENHTKPKTSKGTKQEETFAKGTCRPSAKGKRNKGGRKKRSKPSSSEEDEGPGDKQEKATQRRPHGRERRVASRVSYKEESGSDEAGSGSDFELSSGEASDPSDEDSEPGPPKQRKAPAPQRTKAGSKSASRTHRGSHRKDPSLPAASSSSSSSKRGKKMCSDGEKAEKRSIAGIDQWLEVFCEQEEKWVCVDCVHGVVGQPLTCYKYATKPMTYVVGIDSDGWVRDVTQRYDPVWMTVTRKCRVDAEWWAETLRPYQSPFMDREKKEDLEFQAKHMDQPLPTAIGLYKNHPLYALKRHLLKYEAIYPETAAILGYCRGEAVYSRDCVHTLHSRDTWLKKARVVRLGEVPYKMVKGFSNRARKARLAEPQLREENDLGLFGYWQTEEYQPPVAVDGKVPRNEFGNVYLFLPSMMPIGCVQLNLPNLHRVARKLDIDCVQAITGFDFHGGYSHPVTDGYIVCEEFKDVLLTAWENEQAVIERKEKEKKEKRALGNWKLLAKGLLIRERLKRRYGPKSEAAAPHTDAGGGLSSDEEEGTSSQAEAARILAASWPQNREDEEKQKLKGGPKKTKREKKAAASHLFPFEQL
chain 2: MQVTLKTLQQQTFKIDIDPEETVKALKEKIESEKGKDAFPVAGQKLIYAGKILNDDTALKEYKIDEKNFVVVMVTKPKAVSTPAPATTQQSAPASTTAVTSSTTTTVAQAPTPVPALAPTSTPASITPASATASSEPAPASAAKQEKPAEKPAETPVATSPTATDSTSGDSSRSNLFEDATSALVTGQSYENMVTEIMSMGYEREQVIAALRASFNNPDRAVEYLLMGIPGDRESQAVVDPPQAASTGAPQSSAVAAAAATTTATTTTTSSGGHPLEFLRNQPQFQQMRQIIQQNPSLLPALLQQIGRENPQLLQQISQHQEHFIQMLNEPVQEAGGQGGGGGGGSGGIAEAGSGHMNYIQVTPQEKEAIERLKALGFPEGLVIQAYFACEKNENLAANFLLQQNFDED
In the case of B1, the “EMSA: binding of UV-DDB (0-25 nM) to DNA with 15 nM XPC-RAD23B against none” value [2] is reported as about 4 fold.

B2: CPD-containing 39 bp DNA (λ-I3_CPD / λ-I3_comp_FAM) (dsDNA)
DNA 1: TGCATGCGGCCGCTCTTCCCTTGGTGCGATCGCTCTTCG
DNA 2: CGAAGAGCGATCGCACCATGGGAAGAGCGGCCGCATGCA
modifications: cyclobutane pyrimidine dimer T21^T22 in strand 1; 5'-phosphate on strand 1
B2 was tested, and the Kd [3, 8] was about 5 nM, the Kd [4, 8] was about 7 nM and the binding signal [5] was ~4 fold UV-DDB binding vs no XPC-RAD23B. The binding signal [6] was 2.5 fold UV-DDB affinity vs no XPC-RAD23B.

B3: undamaged 39 bp DNA (λ-I3_Dup / λ-I3_comp_FAM) (dsDNA)
DNA 1: TGCATGCGGCCGCTCTTCCCATGGTGCGATCGCTCTTCG
DNA 2: CGAAGAGCGATCGCACCATGGGAAGAGCGGCCGCATGCA
modifications: 5'-phosphate on strand 1
For B3, the Kd [3] was about 26 nM, the Kd [4] was about 9 nM and the binding result [7] was “binds”.

From article PMC12203913, “XPC-RAD23B enhances UV-DDB binding to DNA to facilitate lesion search in nucleotide excision repair” (Nucleic Acids Research, 2025)
